In publication PMC10794598 one finds stoichiometry N data, which are given here for two substances.

For experiment [1], the target named is BY2-RBD (ER-retained receptor-binding domain of the SARS-CoV-2 S protein expressed stably in Nicotia (SARS-CoV-2) (UniProt P0DTC2)). As to the kind of experiment: non-reducing PAGE Western blot. A general note: A western blot detects proteins with antibodies after separation by electrophoresis.
In experiment [2] the target is NB-RBD (ER-retained receptor-binding domain of the SARS-CoV-2 S protein expressed transiently in N. benthamiana) (SARS-CoV-2) (UniProt P0DTC2). Briefly: non-reducing PAGE Western blot.

As usually defined, the stoichiometry N is the number of molecules, sites or subunits per partner or assembly. In experiment [1], “BY2-RBD (ER-retained receptor-binding domain of the SARS-CoV-2 S protein expressed stably in Nicotia (from UniProt P0DTC2 319-541) (domain or fragment)” displayed a stoichiometry N of 4.
For “NB-RBD (ER-retained receptor-binding domain of the SARS-CoV-2 S protein expressed transiently in N. benthamiana) (from UniProt P0DTC2 319-541) (domain or fragment)”, in experiment [2], the stoichiometry N was determined as 4.
